PMC9366199, “Bivalent binding of p14ARF to MDM2 RING and acidic domains inhibits E3 ligase function” (Life Science Alliance, 2022)

Target: T1, UBE2D2^(S22R C85K)–Ub (UniProt P62837 2-147; P0CG48 1-76, S22R | C85K)
T1 construct: UBE2D2 with S22R and C85K, conjugated to ubiquitin; ubiquitin (Ub), conjugated to UBE2D2; also called UBE2D2–Ub; UBE2D2–Ub conjugate; source: purified as described previously (Buetow et al, 2015)
Assay: SPR; Biacore T200, 25°C; GST-MDM2 variants captured on anti-GST nanobodies on CM-5 chips (about 500 RU), GST as control; UBE2D2–Ub as analyte, seven twofold dilutions from 100 μM; 25 mM Tris-HCl pH 7.6, 300 mM NaCl, 0.5 mM TCEP, 0.005% Tween-20; steady-state affinity
Settings: both partners purified

B1: GST-tagged MDM2^419-C containing the RING domain (domain or fragment, UniProt Q00987 419-491, looked up)
chain: TQDKEESVESSLPLNAIEPCVICQGRPKNGCIVHGKTGHLMACFTCAKKLKKRNKPCPVCRQPIQMIVLTYFP
notes: MDM2, residues 419 to the C-terminus (RING domain); TEV site between GST and MDM2 (modified pGEX-4T-1); the oligomeric state of the GST fusion was not measured here; also called GST-MDM2^RING; MDM2^RING; source: E. coli BL21-DE3; co-expressed with His-GFP-MDM2^220-334, in lysate (pull-down); not shown: GST, N-terminal, kept
Kd: 14.5 ± 1.4 µM
